In US20250369024A1, “Acyloin Condensation Reactions, Enzymes, and Products Thereof” (Mojia Biotech Pte. Ltd., priority 2023, published 2025):

Key:
Assay type in all cases: cell-based, E. coli
[1] = test system: Methional; test: HACS screening, methional-C1 condensation (resting cells), desmeninol; conditions: 20 mM methional and 20 mM formate, 3 hours
Text: (§1) To implement the C1 elongation pathway for leucic acid production in vivo, we engineered vectors to independently control expression of various HACS candidates and the acyl-CoA transferase from Clostridium aminobutyricum (CaAbfT), with HACS under control of the IPTG-inducible T7 promoter in pCDFDuet-1 and CaAbfT under control of a cumate-inducible T5 promoter in pETDuet-1. As a host for these vectors, we used an engineered strain of E. coli based on MG1655(DE3) with knockouts for formaldehyde (ΔfrmA) and formate (ΔfdhF ΔfdnG ΔfdoG) oxidation as well as for glycolate utilization (ΔglcD).
(§2) In vivo product synthesis was conducted using M9 minimal media (6.78 g/L Na2HPO4, 3 g/L KH2PO4, 1 g/L NH4Cl, 0.5 g/L NaCl, 2 mM MgSO4, 100 μM CaCl2), and 15 μM thiamine-HCl) unless otherwise stated. Cells were initially grown in 96-deep well plates (USA Scientific, Ocala, FL) containing 0.5 mL of the above media further supplemented with 20 g/L glycerol, 10 g/L tryptone, and 5 g/L yeast extract. […]
(§3) Cells from the above pre-cultures were then centrifuged (4000 rpm, 22° C.), washed with the above minimal media without any carbon source, and resuspended with 1 mL of above minimal media containing indicated amounts of carbon source. […] After incubation at 30° C. for 3 hours, the cells were pelleted by centrifugation and the media was analyzed using HPLC.

[2] = test system: Acetaldehyde; test: HACS screening, acetaldehyde-C1 condensation (resting cells), lactic acid; conditions: 20 mM acetaldehyde and 20 mM formate, 3 hours
Text: as §1, with “lactic” for “leucic”
as §2, §3

[3] = test system: glyoxylic acid; test: HACS screening, glyoxylic acid-C1 condensation (resting cells), tartronic acid; conditions: 5 mM glyoxylic acid and 20 mM formate; 1 hour
Text: as §1, with “tartronic” for “leucic”
as §2, with “containing 0.2” for “containing 0.5”
as §3, with “1 hour,” for “3 hours,”

B1: RuHACL: Engineered 2-hydroxyphytanoyl-CoA lyase [Rhodospirillales bacterium URHD0017], SEQ ID NO: 1 (protein)
chain: MSEVDGATLIARSLKQQGIDHLFGVVGFPITAIAAAAQKEGVAYLGMRNEQSAAYAAAAYGYLTGRPGAAVVVTGPGVVHGLSGLANAQQNCWPMILIGGASETYRGGMGAFQEERQVLIASPFCKFAHGIESVARIPFYVEMATRNAIYGRPGATYLDMPDDIIRGTCETDKIAQAERVPEAPRSVAPAENVEAALDLLEKAQRPLVLLGKGMAWSRGEDEVRAFIERTQVPFVRSPMGKGVMPDDHPLSASAARTLALQQADVIFLMGARLNWIFHFGLPPRYAKDVKVIQLDIAPEEIGHNKPTEVALVGDGKAIMAQLNKALVNRQWFHPKDTPWRQALTKKAAENVATIKPQVDDDQGPAGYYRALRDVAAWMPKNAILSAEGANTMDIGLTQLASSNARSVLNAGTYGTMGVGLGQAIAAAVSDPSRPVIHLSGDSAIGFSGMEMETLVRYNLPVKIVVLNNGGIGPGMPEIPENPMFNLKPNALIYGARYDKVMEAFGGKGIFVKEPKDIRKALDEAMAFKGPALVNVVLSQGSTRKAQQFAWHS
modifications: Rhodospirillales bacterium URHD0017 engineered 2-hydroxyphytanoyl-CoA lyase
Product flux, substrate Methional, product Desmeninol [1]: 20.0 μM/OD/h
Product flux, substrate Acetaldehyde, product Lactate [2]: 78.1 μM/OD/h
tartronic acid productivity of best candidate [3]: up to 13 μM/hr per OD600
